Our source for the specific signal, fold above native LDL background values is patent US20190391146A1.

The assay concerns the target Mycobacteria modified Low Density Lipoprotein (MtLDL) (human) (UniProt P04114). Kind of assay: sandwich ELISA, value told of the pair No. 6 with No. 8.

B1: bivalent Fab No. 8 (HCVR SEQ ID NO: 5 / LCVR SEQ ID NO: 6) (Fab, V domains shown)
VH: QVQLVQSGAEVKKPGSSVKVSCKASGGTFSGYYISWVRQAPGQGLEWMGGIIPISGRANYAQKFQGRVTITADESTSTAYMELSSLRSEDTAVYYCARSRSYYHFDLWGQGTLVTVSS
VL: DIALTQPASVSGSPGQSITISCTGTSSDVGRYNSVSWYQQHPGKAPKLMIYRVSKRPSGVSNRFSGSKSGNTASLTISGLQAEDEADYYCQSWASLSNVVFGGGTKLTVLG
Regarding B1, the specific signal, fold above native LDL background was > 4 fold.

B2: bivalent Fab No. 6 (HCVR SEQ ID NO: 3 / LCVR SEQ ID NO: 4) (Fab, V domains shown)
VH: EVQLLESGGGLVQPGGSLRLSCAASGFTFRGYYMSWVRQAPGKGLEWVSSISGFSSNTYYADSVKGRFTISRDNSKNTLYLQMNSLRAEDTAVYYCARVRYLAYAFDYWGQGTLVTVSS
VL: DIELTQPPSVSVSPGQTASITCSGDSLPDKRAYWYQQKPGQAPVLVIYGDSHRPSGIPERFSGSNSGNTATLTISGTQAEDEADYYCSSWGSRTWVFGGGTKLTVLG
For B2, the specific signal, fold above native LDL background was > 4 fold.
